Literature values, collected in US20030219387A1, “Local delivery of agents for disruption and inhibition of bacterial biofilm for treatment of periodontal disease” (priority 2000, published 2003).

System: binding of cells
Conditions: iron-saturated form

B1: Lactoferrin: iron-binding salivary protein (protein, UniProt P02788 20-710, looked up)
Lactotransferrin: GRRRSVQWCAVSQPEATKCFQWQRNMRKVRGPPVSCIKRDSPIQCIQAIAENRADAVTLDGGFIYEAGLAPYKLRPVAAEVYGTERQPRTHYYAVAVVKKGGSFQLNELQGLKSCHTGLRRTAGWNVPIGTLRPFLNWTGPPEPIEAAVARFFSASCVPGADKGQFPNLCRLCAGTGENKCAFSSQEPYFSYSGAFKCLRDGAGDVAFIRESTVFEDLSDEAERDEYELLCPDNTRKPVDKFKDCHLARVPSHAVVARSVNGKEDAIWNLLRQAQEKFGKDKSPKFQLFGSPSGQKDLLFKDSAIGFSRVPPRIDSGLYLGSGYFTAIQNLRKSEEEVAARRARVVWCAVGEQELRKCNQWSGLSEGSVTCSSASTTEDCIALVLKGEADAMSLDGGYVYTAGKCGLVPVLAENYKSQQSSDPDPNCVDRPVEGYLAVAVVRRSDTSLTWNSVKGKKSCHTAVDRTAGWNIPMGLLFNQTGSCKFDEYFSQSCAPGSDPRSNLCALCIGDEQGENKCVPNSNERYYGYTGAFRCLAENAGDVAFVKDVTVLQNTDGNNNEAWAKDLKLADFALLCLDGKRKPVTEARSCHLAMAPNHAVVSRMDKVERLKQVLLHQQAKFGRNGSDCPDKFCLFQSETKNLLFNDNTECLARLHGKTTYEKYLGPQYVAGITNLKKCSTSPLLEACEFLRK
modifications: iron saturated
For B1, the binding of cells is given as “reduce binding of cells”.
